Consider three molecules from PMC3848981 (PLoS Biology, 2013).

Substitutions are numbered along the chain they refer to. Names and notes keep the numbering of the source.

For one series, the target named is T1, TRAF4 (Homo sapiens, UniProt Q9BUZ4).
T1 construct: TRAF domain (TRAF-6His), homotrimer
T1 sequence (Q9BUZ4 283-470): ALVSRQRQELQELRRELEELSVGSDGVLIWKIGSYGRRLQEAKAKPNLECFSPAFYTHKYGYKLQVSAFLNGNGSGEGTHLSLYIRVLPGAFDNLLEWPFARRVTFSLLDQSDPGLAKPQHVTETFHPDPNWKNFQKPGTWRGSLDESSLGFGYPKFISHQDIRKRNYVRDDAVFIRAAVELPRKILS
Nature of the series: isothermal titration calorimetry. Type of series: binding. For orientation: In ITC the heat of successive injections is recorded.

Series [1] concerns the molecule itself. In words: native MS; ESI-TOF in native condition, TRAF-6His alone (no lipid), 20 pmol/µL protein in ammonium bicarbonate buffer (100 mM NH4HCO3 pH 8).
Series [2] deals with the molecule itself. In words: SEC + other: dynamic light scattering; gel filtration of 1 ml containing 1 mg WT or 0.3 mg K345E TRAF domain; DLS with 20 µM protein at 25°C in 10 mM Tris pH 7.5, 150 mM NaCl. Background: Size exclusion chromatography separates by hydrodynamic size, large species first.

As for `O=P(O)(O)O[C@H]1[C@H](O)[C@@H](OP(=O)(O)O)[C@H](OP(=O)(O)O)[C@@H](OP(=O)(O)O)[C@H]1O` [IP4, inositol-(1,3,4,5)-tetrakisphosphate], the equilibrium dissociation constant (Kd) (in general, the concentration at which binding is half-saturated) at TRAF4 is 5.68 µM.

B1: TRAF domain of human TRAF4 fused to a 6His tag (TRAF-6His) (domain or fragment, UniProt Q9BUZ4 283-470, looked up)
chain: T1 sequence (Q9BUZ4 283-470)
notes: Tumor necrosis factor receptor-associated factor 4 (TRAF4), human, TRAF domain; the crystal structure includes residues 283-470 of the TRAF domain; Printed monomer mass 22.6 kDa; also called TRAF4-TRAF domain; WT TRAF domain
As for B1, the stoichiometry N (as a rule, the number of molecules, sites or subunits per partner or assembly) in series [1] came out at 3.

B2: K345E mutant TRAF domain of TRAF4 (domain or fragment, human, UniProt Q9BUZ4 283-470, looked up)
chain: T1 sequence (Q9BUZ4 283-470) with K63E
notes: Tumor necrosis factor receptor-associated factor 4 (TRAF4), human, TRAF domain with K345E; same limits as the wild-type TRAF domain, whose structure includes residues 283-470; also called TRAF-K345E; TRAF-6HIS K345E; source: E. coli, purified
As for B2, the “stoichiometry N” value in series [2] stood at 3.
